Reference: patent US20180155451A1 (published 2018)

Key:
[1] = molecular target: T1, FcγRIIIa extracellular domain with C-terminal His tag (human, UniProt P08637 17-208); assay: SPR relative binding; GpH7-A5/GpH7-B3/GpL16-k0 = 100
T1 construct: extracellular domain; also called FcgRIIIa; 3a; not shown: His tag at the C terminus
Text: First, variants of interest were expressed and prepared according to the method described in Reference Example 1, using GpH7-A5 as an H chain; and GpL16-k0 as the L chain; and as the other H chain, GpH7-HA5 (SEQ ID NO: 19), GpH7-HA6 (SEQ ID NO: 20), and GpH7-HA11 (SEQ ID NO: 21) resulting from the introduction of L234Y, G236W, and S298A, respectively, into GpH7-B12 introduced with the alteration P329R. Furthermore, antibodies of interest were expressed and prepared according to the method described in Reference Example 1, using as an H chain, GpH7-A48 (SEQ ID NO: 16) resulting from the introduction of P329R into GpH7-A5; and GpL16-k0 as the L chain; and as the other H chain, GpH7-B3-01-15Y (SEQ ID NO: 22), GpH7-B3-03-20W (SEQ ID NO: 23), and GpH7-B3-15-02A (SEQ ID NO: 24) resulting from the introduction of L234Y, G236W, and S298A, respectively, into GpH7-B3. The antibodies thus obtained were named GpH7-A5/GpH7-HA5/GpL16-k0 (SEQ ID NOs: 3, 19, and 5, respectively), GpH7-A5/GpH7-HA6/GpL16-k0 (SEQ ID NOs: 3, 20, and 5, respectively), GpH7-A5/GpH7-HA11/GpL16-k0 (SEQ ID NOs: 3, 21, and 5, respectively), GpH7-A48/GpH7-B3-01-15Y/GpL16-k0 (SEQ ID NOs: 16, 22, and 5, respectively), GpH7-A48/GpH7-B3-03-20W/GpL16-k0 (SEQ ID NOs: 16, 23, and 5, respectively), and GpH7-A48/GpH7-B3-15-02A/GpL16-k0 (SEQ ID NO: 16, 24, and 5, respectively). The variants were compared to each other for the FcγRIIIa-binding activity according to the method described in Reference Example 2.
(§1) Analysis of interaction between objective antibody and the FcγR was carried out using Biacore T100 (GE Healthcare). HBS-EP+ (GE Healthcare) was used as the running buffer, and the measurement temperature was set to 25° C. Chips produced by immobilizing the antigen peptide by the amine coupling method to a Series S Sencor Chip CM5 (GE Healthcare), or alternatively, chips produced by allowing preliminarily biotinylated antigen peptides to interact with and immobilize onto a Series S Sensor Chip SA (certified) (GE Healthcare) were used. Antibodies of interest were captured onto an antigen peptide-immobilized chip, and allowed to interact to each FcγR diluted with running buffer. To regenerate and repeatedly use the chip, the antibodies captured on the chip were washed off by reacting 10 mM glycine-HCl, pH 1.5.

[2] = molecular target: T2, FcγRIa extracellular domain with C-terminal His tag (human, UniProt P12314 16-292); assay: SPR (Biacore T100), ratio of KD values
T2 construct: extracellular domain; also called FcgRIa; FcgRI
T2 sequence (P12314 16-292): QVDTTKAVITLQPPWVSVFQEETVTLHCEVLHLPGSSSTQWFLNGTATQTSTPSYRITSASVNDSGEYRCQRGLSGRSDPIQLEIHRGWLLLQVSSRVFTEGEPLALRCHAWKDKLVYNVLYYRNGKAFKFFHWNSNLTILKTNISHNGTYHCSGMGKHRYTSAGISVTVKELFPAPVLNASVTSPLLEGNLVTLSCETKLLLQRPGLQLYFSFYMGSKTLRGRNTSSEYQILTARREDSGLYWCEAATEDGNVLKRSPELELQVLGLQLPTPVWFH
Protocol: (§2) These antibodies were assessed for the binding activity to each FcγR according to the method described in Reference Example 2.
as §1
(§3) The FcγR-binding activity of each antibody was assessed primarily using as an indicator the FcγR-binding activity and dissociation constant for FcγR.

[3] = molecular target: T3, FcγRIIIa type V extracellular domain with C-terminal His tag (human, UniProt P08637 17-208); assay: SPR (Biacore T100), ratio of KD values
T3 construct: extracellular domain; also called FcgRIIIa V; FcγRIIIa V
T3 sequence (P08637 17-208 F176V): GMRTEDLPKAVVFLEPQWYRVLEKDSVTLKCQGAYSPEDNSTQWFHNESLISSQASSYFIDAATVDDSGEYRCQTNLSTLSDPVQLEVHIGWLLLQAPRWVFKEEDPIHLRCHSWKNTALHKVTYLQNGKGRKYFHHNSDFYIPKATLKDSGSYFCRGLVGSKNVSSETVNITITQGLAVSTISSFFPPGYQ
Protocol: as §2, §1, §3

[4] = molecular target: T4, FcγRIIa type R extracellular domain with C-terminal His tag (human, UniProt P12318 34-217); assay: SPR (Biacore T100), ratio of KD values
T4 construct: extracellular domain; also called FcgRIIa R; FcγRIIa R
T4 sequence (looked up): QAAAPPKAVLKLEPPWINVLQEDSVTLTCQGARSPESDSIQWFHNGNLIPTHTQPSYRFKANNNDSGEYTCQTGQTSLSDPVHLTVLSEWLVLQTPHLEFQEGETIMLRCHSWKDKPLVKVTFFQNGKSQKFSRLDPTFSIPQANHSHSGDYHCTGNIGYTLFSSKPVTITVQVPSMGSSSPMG
Protocol: as §2, §1, §3

[5] = molecular target: T5, FcγRIIa type H extracellular domain with C-terminal His tag (human, UniProt P12318 34-217); assay: SPR (Biacore T100), ratio of KD values
T5 construct: extracellular domain; also called FcgRIIa H; FcγRIIa H
T5 sequence (looked up): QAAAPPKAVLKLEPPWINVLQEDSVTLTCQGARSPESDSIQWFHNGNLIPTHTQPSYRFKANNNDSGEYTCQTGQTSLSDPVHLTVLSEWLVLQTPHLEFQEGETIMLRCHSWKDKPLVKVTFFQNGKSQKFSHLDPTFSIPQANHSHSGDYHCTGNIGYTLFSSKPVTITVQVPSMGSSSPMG
Protocol: as §2, §1, §3

[6] = molecular target: T6, FcγRIIb extracellular domain with C-terminal His tag (human, UniProt P31994 43-217); assay: SPR (Biacore T100), ratio of KD values
T6 construct: extracellular domain; also called FcgRIIb
T6 sequence (looked up): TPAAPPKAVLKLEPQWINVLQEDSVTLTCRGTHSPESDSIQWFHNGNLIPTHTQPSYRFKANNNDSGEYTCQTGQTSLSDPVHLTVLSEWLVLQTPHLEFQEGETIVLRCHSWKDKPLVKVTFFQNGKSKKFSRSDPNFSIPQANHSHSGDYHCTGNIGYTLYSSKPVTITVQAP
Protocol: as §2, §1, §3

[7] = molecular target: T7, FcγRIIIa type F extracellular domain with C-terminal His tag (human, UniProt P08637 17-208); assay: SPR (Biacore T100), ratio of KD values
T7 construct: extracellular domain; also called FcgRIIIa F; FcγRIIIa F
T7 sequence (P08637 17-208): as the sequence (P08637 17-208 F176V) above, with V160F counted along it
Protocol: as §2, §1, §3

[8] = molecular target: T2, FcγRIa extracellular domain with …; assay: SPR (Biacore T100), antibody captured on antigen-peptide chip, FcγR analyte, 1:1 Langmuir fit
Protocol: as §2, §1, §3

[9] = molecular target: T3, FcγRIIIa type V extracellular domain …; assay: as above
Protocol: as §2, §1, §3

[10] = molecular target: T4, FcγRIIa type R extracellular domain …; assay: as above
Protocol: as §2, §1, §3

[11] = molecular target: T5, FcγRIIa type H extracellular domain …; assay: as above
Protocol: as §2, §1, §3

[12] = molecular target: T6, FcγRIIb extracellular domain with …; assay: as above
Protocol: as §2, §1, §3

[13] = molecular target: T7, FcγRIIIa type F extracellular domain …; assay: as above
Protocol: as §2, §1, §3

T1 sequence (P08637 17-208): as the sequence (P08637 17-208 F176V) above, with V160F counted along it

B1: GpH7-A48/GpH7-B3-01-15Y/GpL16-k0 (antibody, human IgG1, kappa)
heavy 1: QVQLVQSGAEVKKPGASVTVSCKASGYTFTDYEMHWIRQPPGEGLEWIGAIDPKTGDTAYSESFQDRVTLTADKSTSTAYMELSSLTSEDTAVYYCTRFYSYTYWGQGTLVTVSSASTKGPSVFPLAPSSKSTSGGTAALGCLVKDYFPEPVTVSWNSGALTSGVHTFPAVLQSSGLYSLSSVVTVPSSSLGTQTYICNVNHKPSNTKVDKKVEPKSCDKTHTCPPCPAPELLGGPSVFLFPPKPKDTLMISRTPEVTCVVVDVSHEDPEVKFNWYVDGVEVHNAKTKPREEQYNSTYRVVSVLTVLHQDWLNGKEYKCKVSNKALRAPIEKTISKAKGQPREPQVYTLPPSRKELTKNQVSLTCLVKGFYPSDIAVEWESNGQPENNYKTTPPVLDSDGSFFLYSKLTVDKSRWQQGNVFSCSVMHEALHNRYTQKSLSLSP
heavy 2: not shown
light: DIVMTQSPLSLPVTPGEPASISCQASESLVHSNRNTYLHWYLQKPGQSPQLLIYKVSNRFSGVPDRFSGSGSGTDFTLKISRVEAEDVGVYYCSQNTHVPPTFGQGTKVEIERTVAAPSVFIFPPSDEQLKSGTASVVCLLNNFYPREAKVQWKVDNALQSGNSQESVTEQDSKDSTYSLSSTLTLSKADYEKHKVYACEVTHQGLSSPVTKSFNRGEC
notes: H1 P329R; H2 L234Y
**Q.** How did the “FcγRIIIa BINDING ACTIVITY” value [1] turn out when B1 was run?
**A.** 11 % of control

B2: GpH7-A48/GpH7-B3-03-20W/GpL16-k0 (antibody, human IgG1, kappa)
heavy 1: QVQLVQSGAEVKKPGASVTVSCKASGYTFTDYEMHWIRQPPGEGLEWIGAIDPKTGDTAYSESFQDRVTLTADKSTSTAYMELSSLTSEDTAVYYCTRFYSYTYWGQGTLVTVSSASTKGPSVFPLAPSSKSTSGGTAALGCLVKDYFPEPVTVSWNSGALTSGVHTFPAVLQSSGLYSLSSVVTVPSSSLGTQTYICNVNHKPSNTKVDKKVEPKSCDKTHTCPPCPAPELLGGPSVFLFPPKPKDTLMISRTPEVTCVVVDVSHEDPEVKFNWYVDGVEVHNAKTKPREEQYNSTYRVVSVLTVLHQDWLNGKEYKCKVSNKALRAPIEKTISKAKGQPREPQVYTLPPSRKELTKNQVSLTCLVKGFYPSDIAVEWESNGQPENNYKTTPPVLDSDGSFFLYSKLTVDKSRWQQGNVFSCSVMHEALHNRYTQKSLSLSP
heavy 2: not shown
light: DIVMTQSPLSLPVTPGEPASISCQASESLVHSNRNTYLHWYLQKPGQSPQLLIYKVSNRFSGVPDRFSGSGSGTDFTLKISRVEAEDVGVYYCSQNTHVPPTFGQGTKVEIERTVAAPSVFIFPPSDEQLKSGTASVVCLLNNFYPREAKVQWKVDNALQSGNSQESVTEQDSKDSTYSLSSTLTLSKADYEKHKVYACEVTHQGLSSPVTKSFNRGEC
notes: H1 P329R; H2 G236W
**Q.** How did the “FcγRIIIa BINDING ACTIVITY” value [1] turn out when B2 was run?
**A.** 13 % of control

B3: GpH7-A48/GpH7-B3-15-02A/GpL16-k0 (antibody, human IgG1, kappa)
heavy 1: QVQLVQSGAEVKKPGASVTVSCKASGYTFTDYEMHWIRQPPGEGLEWIGAIDPKTGDTAYSESFQDRVTLTADKSTSTAYMELSSLTSEDTAVYYCTRFYSYTYWGQGTLVTVSSASTKGPSVFPLAPSSKSTSGGTAALGCLVKDYFPEPVTVSWNSGALTSGVHTFPAVLQSSGLYSLSSVVTVPSSSLGTQTYICNVNHKPSNTKVDKKVEPKSCDKTHTCPPCPAPELLGGPSVFLFPPKPKDTLMISRTPEVTCVVVDVSHEDPEVKFNWYVDGVEVHNAKTKPREEQYNSTYRVVSVLTVLHQDWLNGKEYKCKVSNKALRAPIEKTISKAKGQPREPQVYTLPPSRKELTKNQVSLTCLVKGFYPSDIAVEWESNGQPENNYKTTPPVLDSDGSFFLYSKLTVDKSRWQQGNVFSCSVMHEALHNRYTQKSLSLSP
heavy 2: not shown
light: DIVMTQSPLSLPVTPGEPASISCQASESLVHSNRNTYLHWYLQKPGQSPQLLIYKVSNRFSGVPDRFSGSGSGTDFTLKISRVEAEDVGVYYCSQNTHVPPTFGQGTKVEIERTVAAPSVFIFPPSDEQLKSGTASVVCLLNNFYPREAKVQWKVDNALQSGNSQESVTEQDSKDSTYSLSSTLTLSKADYEKHKVYACEVTHQGLSSPVTKSFNRGEC
notes: H1 P329R; H2 S298A
**Q.** How did the “FcγRIIIa BINDING ACTIVITY” value [1] turn out when B3 was run?
**A.** 47 % of control

B4: GpH7-Kn033/GpH7-Hl033/GpL16-k0 (antibody, human IgG1, kappa)
heavy 1: not shown
heavy 2: not shown
light: DIVMTQSPLSLPVTPGEPASISCQASESLVHSNRNTYLHWYLQKPGQSPQLLIYKVSNRFSGVPDRFSGSGSGTDFTLKISRVEAEDVGVYYCSQNTHVPPTFGQGTKVEIERTVAAPSVFIFPPSDEQLKSGTASVVCLLNNFYPREAKVQWKVDNALQSGNSQESVTEQDSKDSTYSLSSTLTLSKADYEKHKVYACEVTHQGLSSPVTKSFNRGEC
notes: Anti-glypican-3 IgG1 with knobs-into-holes alone; also called Kn033/Hl033
**Q.** What does the source list for B4?
**A.** KD ratio [2]: 1 fold (KD of GpH7-Kn033/GpH7-Hl033/GpL16-k0 divided by KD of this antibody); KD ratio [3]: 1 fold (KD of GpH7-Kn033/GpH7-Hl033/GpL16-k0 divided by KD of this antibody); KD ratio [4]: 1 fold (KD of GpH7-Kn033/GpH7-Hl033/GpL16-k0 divided by KD of this antibody); KD ratio [5]: 1 fold (KD of GpH7-Kn033/GpH7-Hl033/GpL16-k0 divided by KD of this antibody); KD ratio [6]: 1 fold (KD of GpH7-Kn033/GpH7-Hl033/GpL16-k0 divided by KD of this antibody); KD ratio [7]: 1 fold (KD of GpH7-Kn033/GpH7-Hl033/GpL16-k0 divided by KD of this antibody); Kd [8]: 0.069 nM; Kd [9]: 220 nM; Kd [10]: 740 nM; Kd [11]: 590 nM; Kd [12]: 3600 nM; Kd [13]: 1600 nM
